± gives the standard deviation of the averaged measurements.
Tested on: ATP
Experiment: switch fluorescence ratio, 500 uM ATP over buffer (Cy3 cluster intensity, sum of 5 cycles each) (fold (ratio)); higher = stronger signal-on switching upon ATP binding; sequences stand for … in TCGTCGGCAGCGTCAGATGTGTATAAGAGACAGTTTTTTTTTTTTTTTTTTTTTTTTT…TC
Settings: aptamer strand: ATP DNA aptamer (quencher-CACCTGGGGGAGTATTGCGGAGGAAGG + anchor), 100 nM annealed; ATP concentration: 500 uM
In short: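 Imaging in selection buffer was followed by imaging after 15 min with 500 uM ATP at 22 °C, for Cy3-labelled switching-strand clusters annealed to 100 nM quencher-labelled ATP aptamer on a modified Illumina MiSeq flow-cell. Five of these buffer/ATP cycles ran, separated by NaOH stripping and re-annealing. The fluorescence ratio per cluster is summed target-cycle over summed buffer-cycle Cy3 intensity, averaged per switch-domain sequence; clusters outside 100-1000 RFU were removed.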
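Note: ATP exposure 15 min at 22 °C before imaging.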

Sequence | switch fluorescence ratio
TATACGGCAC | 2.04 ± 0.14
AGGCGTGGGA | 1.001 ± 0.0083
GGCGTGGGGA | 1.02 ± 0.017
GCACCTTGAG | 1.001 ± 0.0014
TATAAGCTAG | 1.03 ± 0.017
GGAGGCTGAG | 0.993 ± 0.011
TTTGGGTGCG | 0.998 ± 0.04
AAAGGAAAGT | 1.01 ± 0.02
TTTAGGGGAT | 1.01 ± 0.038
AACCAAAAAA | 1.01 ± 0.019
ATATGTGGGG | 1.01 ± 0.011
AAATTAAATC | 0.993 ± 0.043
GGTTGTTCGT | 1.006 ± 0.0037
TCTTGGGATT | 0.981 ± 0.0029
TTGTGTAGGG | 1.01 ± 0.017
CGGTGGGATG | 0.9784 ± 0.0072
TGGTAACGCG | 1 ± 0.014
TGAATGGTTT | 0.997 ± 0.031
GGCGCATGGA | 0.991 ± 0.023
GCAGGTTCGG | 1.01 ± 0.037
TTTACGATTG | 1.03 ± 0.029
GGGGTTTTAA | 0.988 ± 0.02
AAAGCTTGGA | 1.03 ± 0.058
TCGTATATTA | 1.02 ± 0.013
ATATATAGTT | 1.043 ± 0.01

Sequence | switch fluorescence ratio
GTTCTGATGT | 1.01 ± 0.029
TGTTCCGCTT | 2.16 ± 0.17
AAAGGTAATT | 1.01 ± 0.015
CATTAGCGCA | 1.047 ± 0.0084
ACATTCACGT | 1.52 ± 0.033
TCCGTGTCTA | 1.07 ± 0.022
CAAGTCTGG | 0.985 ± 0.032
ATTGGTGCT | 1.001 ± 0.007
TTATAGGTTT | 1 ± 0.019
GCAATAGGGT | 1.37 ± 0.037
GTGTGTGGCT | 0.976 ± 0.051
ACTGATACGT | 1.12 ± 0.017
GCGGGGGGCC | 1.05 ± 0.1
AAGTGGGGGG | 1 ± 0.024
TTAGTGGCCC | 0.99 ± 0.016
GAGGGAAGGG | 0.994 ± 0.011
CGTTACAGGT | 1.04 ± 0.028
TTTGGATACG | 1.01 ± 0.011
ATAGGGAGGC | 0.967 ± 0.035
CGGGCTGGAA | 1.004 ± 0.0086
TTAATCCCCC | 1.04 ± 0.042
ATTAAAATAC | 1.09 ± 0.11
GGATTCTGTG | 0.969 ± 0.018
TTTTCAAAAA | 1.13 ± 0.19
AATTTTTTT | 0.992 ± 0.01

Sequence | switch fluorescence ratio
GATGTTTTTT | 1.07 ± 0.14
AAAAGGGGCG | 1 ± 0.019
CGTAGGAGGA | 0.98 ± 0.036
TTAGCGGTAT | 1.08 ± 0.087
GGTGCGTTCT | 1 ± 0.043
AATCAGGGGG | 1.01 ± 0.04
AATGGTTGAC | 0.988 ± 0.017
GATTAAGAGG | 1.01 ± 0.039
CAATTTAGTC | 0.983 ± 0.022
GTTACTTTGT | 0.992 ± 0.0075
GTAGTTTATG | 0.996 ± 0.014
TTGAGCATTT | 0.982 ± 0.03
TCGGAAAGGA | 0.9814 ± 0.0016
CCTGCTGTCC | 1.16 ± 0.051
TGAATCAATT | 1.06 ± 0.026
TTAATTTGGT | 0.971 ± 0.03
ATATTGATTA | 1.02 ± 0.032
GAAGCGCGTC | 0.998 ± 0.049
TTTTTTGGCT | 0.995 ± 0.025
TGGTCTTGTA | 1.04 ± 0.021
AATAGATTGC | 1.003 ± 0.0092
AAATGAGTGT | 0.975 ± 0.026
TCAGTACGAC | 1.2 ± 0.021
AAAAATTAAA | 1.002 ± 0.0018
AGAGTCCCTT | 1 ± 0.036

Sequence | switch fluorescence ratio
AAACGGACGG | 1.24 ± 0.029
TTTACCACCT | 1.27 ± 0.096
AGGGGGGGGT | 1 ± 0.05
TTGGGTATGC | 0.99 ± 0.046
AACTGCGCTG | 1.01 ± 0.035
CACAGGGGAC | 1.11 ± 0.05
TTAGGGAAAA | 0.983 ± 0.038
TGGGTAATAT | 1.032 ± 0.0077
TTCTAACTCA | 1.02 ± 0.029
TCAACCTACG | 1.36 ± 0.17
TACGCACGTA | 1.31 ± 0.17
AGAGTCAATG | 1.04 ± 0.023
CTAGTTAAAC | 1.01 ± 0.02
CGTTACTTAG | 1.02 ± 0.011
TTTGATATAG | 0.994 ± 0.034
CGAGAGACCG | 0.951 ± 0.013
ACAAAAGACT | 1.19 ± 0.25
TAATTAATCT | 0.992 ± 0.049
TACTGGGACG | 1.004 ± 0.0068
ATATCTCGAG | 0.981 ± 0.02
TTAATATTGT | 1.029 ± 0.0062
AAGGGGTAAT | 0.967 ± 0.045
GGTCTGGGCT | 0.976 ± 0.017
GGCACCTTAT | 1.06 ± 0.034
TTGGGGAAAC | 0.99 ± 0.029

Sequence | switch fluorescence ratio
CAGGAGACGA | 1.03 ± 0.025
GACGGAGTTG | 1.01 ± 0.026
GAAAAATGCC | 1.05 ± 0.05
GAGACGGAAT | 1.06 ± 0.025
TTGCAGCATG | 1.51 ± 0.68
TTTGAGTAAG | 1.02 ± 0.046
ACTTGTGCAG | 0.978 ± 0.026
TCTATTTGCA | 1 ± 0.042
TATAAAACCC | 1.1 ± 0.045
AATGTGGGTG | 1.03 ± 0.045
ACATATATGG | 0.9752 ± 0.0051
CATAGGCTGG | 0.985 ± 0.016
TAGGGTAAGT | 0.9905 ± 0.0089
GGGAAGCCGT | 1.14 ± 0.23
AGAAAAGCAG | 1.02 ± 0.015
ACCAAGCCAT | 1.09 ± 0.077
GAATACTTCG | 1.07 ± 0.016
TTGAGCTAGA | 0.971 ± 0.025
AAAGTTGGTA | 0.967 ± 0.055
TCAGGGTGTC | 1.33 ± 0.17
GCTGGCAGAC | 1.23 ± 0.032
ATTGAGGCTC | 0.985 ± 0.012
AGTGAGGGGA | 0.975 ± 0.015
CGTTTTGCGG | 1.04 ± 0.052
TCCGGGAGTG | 1.078 ± 0.0027

Sequence | switch fluorescence ratio
GCAGAATGGG | 1.08 ± 0.12
ACATTGGTGG | 0.993 ± 0.026
GGCGAAGGAG | 0.999 ± 0.011
GAGATCTAGT | 1.01 ± 0.019
CGCAAAGAGG | 1.18 ± 0.11
TGTCGTGTAG | 1.01 ± 0.0094
GGAGAGGTTG | 0.971 ± 0.021
TTTGAGTTT | 0.981 ± 0.012
CAAGGTAAGT | 1.03 ± 0.056
AGTAGGAAGC | 1.01 ± 0.03
TTAAGGCAA | 1.125 ± 0.0087
ATCATCTGAC | 1.095 ± 0.0095
GTAGGGATGG | 1.03 ± 0.013
GCTCCAGTTA | 1.178 ± 0.0045
GGGCATGCGT | 0.973 ± 0.042
TGTGTTAGG | 1.01 ± 0.03
TGAGGGCGAA | 0.984 ± 0.01
GGTTGGAATG | 1.08 ± 0.18
TCAGGGTGTG | 1.019 ± 0.0067
AAGGGAAGGC | 1 ± 0.018
TTGACAGGGC | 0.952 ± 0.057
GACGGGGCGT | 0.989 ± 0.013
GAAGTTGCCT | 1.05 ± 0.028
ACCGGGGGCT | 1.034 ± 0.0052
ACCGCTGTGG | 1.06 ± 0.019

Sequence | switch fluorescence ratio
GAAAGTGTGT | 1.004 ± 0.0092
AATCGAGTTG | 0.985 ± 0.013
AGGGAAGAGA | 1 ± 0.021
ACCATTTTTG | 0.985 ± 0.057
TATGATTTAT | 0.995 ± 0.062
GTTGCAGTTC | 1.01 ± 0.034
ATTGACGTAC | 1.76 ± 0.083
CATAGCATCC | 1.48 ± 0.2
TAATGAGGGG | 0.992 ± 0.033
TCTTTTAATT | 1.05 ± 0.07
GGCGTTCGCT | 0.984 ± 0.026
ACACCAGGGG | 4.18 ± 0.57
TGCAGGAGGG | 0.972 ± 0.022
GAGAGGGGGT | 0.998 ± 0.05
TGATACTGCT | 0.961 ± 0.035
GTGTGTCTGT | 0.991 ± 0.021
AAATGGATCG | 1 ± 0.018
TCCTGAAAAC | 1.1 ± 0.087
GAGTAAGAGC | 1.017 ± 0.0075
TCAGCTGCAA | 4.21 ± 0.32
AGCTTGGACC | 1.009 ± 0.0084
CAGGTTTGGC | 0.9775 ± 0.002
TTGGTATTTT | 0.989 ± 0.018
GAAATTTAGG | 0.9938 ± 0.0046
TTTATATTCT | 1.03 ± 0.074

Sequence | switch fluorescence ratio
TTTGGTTGTG | 0.986 ± 0.018
ATATTATTTT | 0.9788 ± 0.0047
TTTTGGGTAT | 0.985 ± 0.032
CACAGTGTCA | 1.01 ± 0.027
ATGACCCCTC | 1.044 ± 0.007
TGTTTTTTTT | 0.999 ± 0.029
CACATGTAGC | 1.02 ± 0.041
TCCAGGTGTG | 2.77 ± 0.42
AATAGGGGTT | 0.984 ± 0.03
AATGGGTTTG | 1.01 ± 0.03
GACCCGTCCA | 0.995 ± 0.024
ACAGGCGCTT | 1.01 ± 0.013
AGGGAGGGAA | 1.01 ± 0.022
AGCGGGGCGT | 1.01 ± 0.014
CACCTTTATT | 1.018 ± 0.0096
GCGGGGGTAG | 1.17 ± 0.25
TTTCAAATCT | 1.026 ± 0.0019
AGAAGGGGG | 0.968 ± 0.022
CGGACCGGGA | 1.06 ± 0.012
CTTTTGAGAC | 1.02 ± 0.053
TTGCTCGTCG | 1.04 ± 0.0046
GCGGAGAGAT | 1.27 ± 0.33
GTGTTAAGGG | 0.979 ± 0.028
ATTTGTGAAC | 1.02 ± 0.024
CAATATGTAT | 0.997 ± 0.063
